Test results taken from patent US20170369572A1.

Biological target: human CD47 on CCRF-CEM cells (human) (UniProt Q08722)
Experiment: flow cytometry on CCRF-CEM cells, MFI against concentration, one site specific binding with Hill slope

B1: B6H12, mu anti-hu CD47 (antibody, from another filing, V domains shown)
VH: EVQLVESGGDLVKPGGSLKLSCAASGFTFSGYGMSWVRQTPDKRLEWVATITSGGTYTYYPDSVKGRFTISRDNAKNTLYLQIDSLKSEDTAIYFCARSLAGNAMDYWGQGTSVTVSS
VL: DIVMTQSPATLSVTPGDRVSLSCRASQTISDYLHWYQQKSHESPRLLIKFASQSISGIPSRFSGSGSGSDFTLSINSVEPEDVGVYYCQNGHGFPRTFGGGTKLEIK
Work on B1 yielded a Kd of 16 nM.
